# Measurements: patent US9766249B2, “Compositions and methods for prediction of drug sensitivity, resistance, and disease progression” (BioMarker Strategies, LLC, priority 2010, dated 2017)
# Columns and labels:
# Assay type in all cases: cell-based
# RPMI-7951 [1] = assay: PDGFβ stimulation and MEK inhibition of PDGFβ stimulation (FIGS. 23 and 24); conditions: PDGFβ stimulation
# RPMI-7951 [2] = assay: Melanoma pErk induction following stimulation by TPA (FIG. 17)
# [3] = system: human pancreatic neuroendocrine tumors (PanNETs); assay: Pancreatic tumor functional signaling profile upon TPA stimulation (FIG. 18); conditions: tumor sample 10189 (metastatic PancNET)
# Description: All samples except 10195 are examples of human pancreatic neuroendocrine tumors (PanNETs). 10195 is a sample of a human pancreatic adenocarcinoma. The data reveal differences in functional profiles based on TPA stimulation using three different phosphoprotein biomarkers (p-ERK1/2, p-GSKα/β, and p-STAT3).
Molecule,pPDGF (RPMI-7951 [1]),pErk (RPMI-7951 [2]),pERK induction [3] [×]
"PDGFβ: platelet-derived growth factor stimulus applied to melanoma cell lines (protein, UniProt P01127 82-190, looked up) Platelet-derived growth …: SLGSLTIAEPAMIAECKTRTEVFEISRRLIDRTNANFLVWPPCVEVQRCSGCCNNRNVQCRPTQVQLRPVQVRKIEIVRKKPIFKKATVTLEDHLACKCETVAAARPVT",activated,,
"tissue plasminogen activator (protein, UniProt P00750 36-562, looked up, modulator used for ex vivo stimulation) Tissue-type plasminogen …: SYQVICRDEKTQMIYQQHQSWLRPVLRSNRVEYCWCNSGRAQCHSVPVKSCSEPRCFNGGTCQQALYFSDFVCQCPEGFAGKCCEIDTRATCYEDQGISYRGTWSTAESGAECTNWNSSALAQKPYSGRRPDAIRLGLGNHNYCRNPDRDSKPWCYVFKAGKYSSEFCSTPACSEGNSDCYFGNGSAYRGTHSLTESGASCLPWNSMILIGKVYTAQNPSAQALGLGKHNYCRNPDGDAKPWCHVLKNRRLTWEYCDVPSCSTCGLRQYSQPQFRIKGGLFADIASHPWQAAIFAKHRRSPGERFLCGGILISSCWILSAAHCFQERFPPHHLTVILGRTYRVVPGEEEQKFEVEKYIVHKEFDDDTYDNDIALLQLKSDSSRCAQESSVVRTVCLPPADLQLPDWTECELSGYGKHEALSPFYSERLKEAHVRLYPSSRCTSQHLLNRTVTDNMLCAGDTRSGGPQANLHDACQGDSGGPLVCLNDGRMTLVGIISWGLGCGQKDVPGVYTKVTNYLDWIRDNMRP",,induction,10
